Data from patent US20240317847A1 (Bayer, published 2024).
Changes are numbered by the printed parent chain.

T1: cynomolgus IL-11 (cynomolgus, UniProt P20808 22-199)
T1 sequence: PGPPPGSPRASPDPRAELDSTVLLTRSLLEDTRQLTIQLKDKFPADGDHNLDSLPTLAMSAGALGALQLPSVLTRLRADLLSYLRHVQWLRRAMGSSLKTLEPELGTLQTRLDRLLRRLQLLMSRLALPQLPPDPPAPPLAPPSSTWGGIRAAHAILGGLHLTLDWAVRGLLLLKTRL

T2: human IL-11 (human, UniProt P20809 22-199)
T2 sequence: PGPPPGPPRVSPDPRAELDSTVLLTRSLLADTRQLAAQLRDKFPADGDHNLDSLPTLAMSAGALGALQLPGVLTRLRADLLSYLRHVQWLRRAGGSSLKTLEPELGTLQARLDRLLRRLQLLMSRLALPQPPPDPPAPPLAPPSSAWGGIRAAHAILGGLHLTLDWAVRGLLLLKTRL

T3: murine IL-11 (mouse, UniProt P47873 22-199)
T3 sequence: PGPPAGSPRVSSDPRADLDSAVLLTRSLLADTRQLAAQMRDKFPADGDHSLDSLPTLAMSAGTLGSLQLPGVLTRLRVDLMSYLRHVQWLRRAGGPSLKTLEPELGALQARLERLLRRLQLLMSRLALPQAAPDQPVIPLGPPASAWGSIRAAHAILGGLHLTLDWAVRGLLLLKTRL

T4: rat IL-11 (rat, UniProt Q99MF5 22-199)
T4 sequence: T3 sequence with S50N, L84F, G94A, V137A, I138V

T5: human IL2Ra (human, UniProt P01589 22-240, limits assumed)
T5 construct: coated on the ELISA plate; also called IL-2 receptor alpha
T5 sequence (looked up): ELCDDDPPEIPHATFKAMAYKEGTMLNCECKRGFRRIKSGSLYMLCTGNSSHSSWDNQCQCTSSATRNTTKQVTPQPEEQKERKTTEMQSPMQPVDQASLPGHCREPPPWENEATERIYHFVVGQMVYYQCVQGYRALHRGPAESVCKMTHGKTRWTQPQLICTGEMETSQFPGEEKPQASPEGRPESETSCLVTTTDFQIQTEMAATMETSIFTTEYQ

B1: TPP-18087 (antibody, mouse IgG1, V domains shown)
VH: EVQLLESGGGLVQPGGSLRLSCAASGFTFSHYDMNWLRQAPGKGLEWVGVISYDGSNKFYADFVKGRFTISRDNSKNTLYLQMNSLRAEDTAVYYCARTPGSHFDYWGQGTLVTVSS
VL: QSVLTQPPSASGTPGQRVTISCSGSSSNIGNNAVNWYQQLPGTAPKLLIYYDDLLPSGVPDRFSGSKSGTSASLAISGLRSEDEADYYCSAWDDSLNGVVFGGGTKLTVLG
notes: mIgG1, Lambda
B2: TPP-18068 (antibody, mouse IgG1)
heavy: EVQLLESGGGLVQPGGSLRLSCAASGFTFSSYGMHWVRQAPGKGLEWVSVISYDGSYKYYADSVKGRFTISRDNSKNTLYLQMNSLRAEDTAVYYCAAGVPDYWGQGTLVTVSSAKTTPPSVYPLAPGSAAQTNSMVTLGCLVKGYFPEPVTVTWNSGSLSSGVHTFPAVLQSDLYTLSSSVTVPSSTWPSETVTCNVAHPASSTKVDKKIVPRDCGCKPCICTVPEVSSVFIFPPKPKDVLTITLTPKVTCVVVDISKDDPEVQFSWFVDDVEVHTAQTQPREEQFNSTFRSVSELPIMHQDWLNGKEFKCRVNSAAFPAPIEKTISKTKGRPKAPQVYTIPPPKEQMAKDKVSLTCMITDFFPEDITVEWQWNGQPAENYKNTQPIMDTDGSYFVYSKLNVQKSNWEAGNTFTCSVLHEGLHNHHTEKSLSHSPGK
light: QSVLTQPPSASGTPGQRVTISCTGSSSNIGAGYDVHWYQQLPGTAPKLLIYSNNERPSGVPDRFSGSKSGTSASLAISGLRSEDEADYYCAAWDDSLNGPVFGGGTKLTVLGQPKSSPSVTLFPPSSEELETNKATLVCTITDFYPGVVTVDWKVDGTPVTQGMETTQPSKQSNNKYMASSYLTLTARAWERHSSYSCQVTHEGHTVEKSLSRADCS
notes: mIgG1, Lambda
B3: TPP-29528 (antibody, mouse IgG1)
heavy: B2 heavy with S49A
light: B2 light with T23S, A31S, G32D, N54E, A91S, D95S, N98S
notes: mIgG1, Lambda
B4: TPP-29519 (antibody, mouse IgG1)
heavy: QVQLVESGGGVVQPGRSLRLSCAASGFTFSHYDMHWVRQAPGKGLEWVAVISYHGSVKFYADSVKGRFTISRDNSKNTLYLQMNSLRAEDTAVYYCARTPGFHFDYWGQGTLVTVSSAKTTPPSVYPLAPGSAAQTNSMVTLGCLVKGYFPEPVTVTWNSGSLSSGVHTFPAVLQSDLYTLSSSVTVPSSTWPSETVTCNVAHPASSTKVDKKIVPRDCGCKPCICTVPEVSSVFIFPPKPKDVLTITLTPKVTCVVVDISKDDPEVQFSWFVDDVEVHTAQTQPREEQFNSTFRSVSELPIMHQDWLNGKEFKCRVNSAAFPAPIEKTISKTKGRPKAPQVYTIPPPKEQMAKDKVSLTCMITDFFPEDITVEWQWNGQPAENYKNTQPIMDTDGSYFVYSKLNVQKSNWEAGNTFTCSVLHEGLHNHHTEKSLSHSPGK
light: QSVLTQPPSASGTPGQRVTISCSGSSSNIGSNYVSWYQQLPGTAPKLLIYYDDLRPSGVPDRFSGSKSGTSASLAISGLRSEDEADYYCSAWDDSLSGVVFGGGTKLTVLGQPKSSPSVTLFPPSSEELETNKATLVCTITDFYPGVVTVDWKVDGTPVTQGMETTQPSKQSNNKYMASSYLTLTARAWERHSSYSCQVTHEGHTVEKSLSRADCS
notes: mIgG1, Lambda

biological target: T1, cynomolgus IL-11; assay: cell-based or functional assay

Efficacy (%), Stat3 reporter gene assay [%] | IC50, Stat3 reporter gene assay [pM] | Binder
47.7 |  | B1
70 | 4100 | B2
87.8 | 440 | B3
99.2 | 890 | B4

biological target: T2, human IL-11; assay: cell-based or functional assay

Efficacy (%), Stat3 reporter gene assay [%] | IC50, Stat3 reporter gene assay [nM] | Binder
47.8 |  | B1
46.1 | 6.5 | B2
81.2 |  | B3
100 | 1.8 | B4

biological target: T3, murine IL-11; assay: cell-based or functional assay

Efficacy (%), Stat3 reporter gene assay [%] | IC50, Stat3 reporter gene assay [nM] | Binder
59.4 | 16 | B1
93.6 | 1.2 | B2
96.9 | 0.89 | B3
101 | 1.2 | B4

biological target: T4, rat IL-11; assay: cell-based or functional assay

Efficacy (%), Stat3 reporter gene assay [%] | IC50, Stat3 reporter gene assay [nM] | Binder
31.8 |  | B1
94 | 1.8 | B2
89.9 | 1.8 | B3
99.7 | 1 | B4

biological target: T5, human IL2Ra; assay: ELISA on coated IL2Ra, signal ratio to isotype control TPP-10159 at 3.3E-7 M antibody
Description: IL2RA (Peprotech, Germany, #200-02RC) was coated at 1 or 0 μg/ml (buffer only control) in 30 μl coating buffer (Candor, #113500) per well on a 384 well microtiter plate (Maxisorb, Nunc, #460518) over night at 4-8° C. After two washes with 50 μl/well washing buffer (PBS+0.05% Tween, pH 7.4), the plates were incubated for two hours at room temperature with 50 μl/well SmartBlock (Candor, #113500). After blocking, the plates were washed three times with washing buffer. Then, a dilution series of the respective antibody (1E-7 [M] down to 2E-13 [M]) in PBS+0.05% Tween, 10% SmartBlock were added in 30 μl to the microtiter plate and incubated for 90 min at room temperature. After three additional washes, 30 μl anti mouse IgG HRP-conjugated antibody (Biotechne, HAF007), diluted 1:1000 in PBS+0.05% Tween (pH 7.4), were added per well and incubated for one hour. After three additional washes, a mixture of Amplex red (Invitrogen, #12222, 10 mM stock solution in DMSO) 1:1000 diluted in PBS and H2O2 (30%, Merck, #107209)) diluted 1:10000 in PBS were added as substrate with 30 μl per well and incubated for 20 min in the dark. Relative fluorescence was measured with a microtiter plate reader at 535/590 nm.
IgG converted antibodies TPP-were tested for binding to IL2Ra as described in Example 20. The ratios of the signals obtained at an antibody concentration of 3.3E-7 [M] for IgG converted antibody versus the isotype control TPP-10159 were calculated and are shown in Table E22.

Antibody/Isotype Control Ratio of IL-2Ra Binding Signals [ratio] | Binder
0.6 | B1
377 | B2
24.2 | B3
0.7 | B4

biological target: T3, murine IL-11; assay: SPR (Biacore), 37 C, antibody captured via anti-Fc, IL-11 as analyte
Description: To assess the binding kinetics and affinity of anti-IL-11 bispecific antibodies as well as their species cross-reactivity profile, binding assays were conducted using surface plasmon resonance (SPR). […] Antibodies were captured either via anti-human Fc IgGs (“Human antibody capture kit”, Order No. BR100839, Cytiva) or via anti-mouse Fc IgGs (“Mouse antibody capture kit, Order No. BR100383, Cytiva) covalently amine coupled to a Series S CM5 sensor chip (Cytiva) depending on the isotype. The amine coupling was carried out according to the manufacturer's instructions using 1-ethyl-3-(3-dimethylaminopropyl) carbodiimide hydrochloride (EDC), N-hydroxysuccinimide (NHS) and ethanolamine HCl, pH 8.5 (“Amine Coupling Kit” BR-1000-50, Cytiva.). Human, mouse, cynomolgus or rat IL-11 was used as analyte at several dilutions within the concentration range from 0.05-200 nM. For binding assays with only one concentration 200 nM IL-11 was used. The sensor surface was regenerated with glycine pH 1.7 after each antigen injection. Obtained sensorgrams were double referenced (subtraction of reference flow cell signal and buffer injection) and were fitted to a 1:1 Langmuir binding model to derive kinetic data using the Biacore T200 Evaluation software or the Biacore Insight software.
If no value is reported, there was either no binding or very low binding and multiphasic binding behavior.

Kd [nM] | Binder
41 | B1
0.41 | B2
0.23 | B3
0.0035 | B4
